The values below come from PMC4412286.

The experiment has as its target phosphoinositol 3-kinase (PI3-kinase), p85 subunit (human (endogenous in AGS)) (UniProt P27986).
Chain of UniProt P27986 (P27986 whole entry): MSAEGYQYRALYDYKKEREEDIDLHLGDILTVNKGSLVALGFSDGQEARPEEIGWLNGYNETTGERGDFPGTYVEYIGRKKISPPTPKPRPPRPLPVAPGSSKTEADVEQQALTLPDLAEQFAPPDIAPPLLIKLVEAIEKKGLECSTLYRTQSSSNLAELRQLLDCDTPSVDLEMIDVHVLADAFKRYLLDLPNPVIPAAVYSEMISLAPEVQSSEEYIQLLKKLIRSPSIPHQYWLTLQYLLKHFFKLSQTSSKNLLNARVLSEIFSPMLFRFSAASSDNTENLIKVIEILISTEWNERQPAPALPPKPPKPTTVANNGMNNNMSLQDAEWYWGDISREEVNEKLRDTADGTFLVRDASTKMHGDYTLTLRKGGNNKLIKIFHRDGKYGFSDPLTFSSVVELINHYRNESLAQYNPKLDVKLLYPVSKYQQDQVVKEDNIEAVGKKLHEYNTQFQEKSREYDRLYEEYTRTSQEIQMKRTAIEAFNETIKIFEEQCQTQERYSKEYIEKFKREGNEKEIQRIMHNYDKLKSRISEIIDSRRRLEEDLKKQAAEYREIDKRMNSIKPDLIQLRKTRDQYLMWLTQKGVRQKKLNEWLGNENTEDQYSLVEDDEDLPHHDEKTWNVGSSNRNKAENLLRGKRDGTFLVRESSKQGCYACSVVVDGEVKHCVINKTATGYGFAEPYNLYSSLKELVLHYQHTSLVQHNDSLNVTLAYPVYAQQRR

In turn, “CagA of H. pylori strain 147C with EPIYT B-TPM (wild-type 147C sequence), HA fusion (natural protein)” returned a phosphorylation of AKT at threonine 308 in AGS cells after 24 h co-culture with the EPIYT isogenic strain (immunoblot, fold) of 2.4 fold.

With “CagA of H. pylori strain 147C with EPIYA B-TPM, HA fusion (natural protein)”, the phosphorylation of AKT at threonine 308 in AGS cells after 24 h co-culture with the EPIYA isogenic strain (immunoblot, fold) is 1.7 fold.
